Test results published in publication PMC8538552.

Biological target: protein A from Staphylococcus aureus (Staphylococcus aureus) (UniProt P38507)
Assay: fluorescence intensity of the solution left after immobilization (plate reader); solutions used for functionalization with FITC antibody analysed after the immobilization process on substrate with and without protein A; VICTOR3 plate reader; calibration curve to quantify the antibody that remained in solution

**Q.** For “CD4 (VIT4)-FITC mouse anti-human antibody (Miltenyi Biotec)”, which percent of the starting antibody solution immobilised is on record?
**A.** < 60%
